Laboratory results reported in US20240117018A1.

Assays:
Experiment in all cases: cell-based or functional assay
[1] = target: AC10.0.29 Env pseudovirus (HIV-1)
[2] = target: 6244_13_B5_4576 Env pseudovirus (HIV-1)
[3] = target: Ce0393_C3 Env pseudovirus (HIV-1)
[4] = target: QH0692.42 Env pseudovirus (HIV-1)
[5] = target: Q461.e2 Env pseudovirus (HIV-1)
[6] = target: Q259.d2.17 Env pseudovirus (HIV-1)
[7] = target: BF1266.431a Env pseudovirus (HIV-1)
[8] = target: WEAU_d15_410_787 Env pseudovirus (HIV-1)
[9] = target: REJO4541.67 Env pseudovirus (HIV-1)
[10] = target: HIV-001428-2.42 Env pseudovirus (HIV-1)
[11] = target: ZM214M.PL15 Env pseudovirus (HIV-1)
[12] = target: ZM233M.PB6 Env pseudovirus (HIV-1)
[13] = target: Ce703010054_2A2 Env pseudovirus (HIV-1)
[14] = target: 7030102001E5(Rev-) Env pseudovirus (HIV-1)
[15] = target: Ce1172_H1 Env pseudovirus (HIV-1)
[16] = target: THRO4156.18 Env pseudovirus (HIV-1)
[17] = target: Du156.12 Env pseudovirus (HIV-1)
[18] = target: Q769.d22 Env pseudovirus (HIV-1)
[19] = target: 928-28 Env pseudovirus (HIV-1)
[20] = target: 62357_14_D3_4589 Env pseudovirus (HIV-1)
[21] = target: CNE17 Env pseudovirus (HIV-1)
[22] = target: ZM109F.PB4 Env pseudovirus (HIV-1)
[23] = target: HIV-0013095-2.11 Env pseudovirus (HIV-1)
[24] = target: 1056_10_TA11_1826 Env pseudovirus (HIV-1)
[25] = target: Ce2060_G9 Env pseudovirus (HIV-1)
[26] = target: CNE19 Env pseudovirus (HIV-1)
[27] = target: SC422661.8 Env pseudovirus (HIV-1)
[28] = target: 246F C1G Env pseudovirus (HIV-1)
[29] = target: CAP210.2.00.E8 Env pseudovirus (HIV-1)
[30] = target: Q842.d12 Env pseudovirus (HIV-1)
[31] = target: 6240_08_TA5_4622 Env pseudovirus (HIV-1)
[32] = target: 263-8 Env pseudovirus (HIV-1)
[33] = target: 191955_A11 Env pseudovirus (HIV-1)
[34] = target: 9004SS_A3_4 Env pseudovirus (HIV-1)
[35] = target: Ce1176_A3 Env pseudovirus (HIV-1)

B1: N49P22 (antibody, V domains shown)
V domain 1: HIQLLQSGPQVKKSGDTVRISCETSGYNFVDSRIHWVRQTPEKRLRWMGWINPLQGGVNYAPEFQGRIRMTRDTFIDTVYVDLSGLTPADTAYYYCARGIDGKSYPFHFWGHGTRVTVFS
V domain 2: RFALTQPASVSGSPGQTITITCAGGSVSWFHFPPGKTPRLIIYESSKRPSGVSPRFSGSQSGSTASLIISGLQSDDEGTYFCSILEFFGRGTLVTVLS
B1 was tested, and the IC50 [1] was greater than 50 µg/mL, the IC80 [1] was greater than 50 µg/mL and the MPI [1] was 0. For the same binder, the IC50 [2] was 0.565 µg/mL, the IC80 [2] was 2.48 µg/mL and the MPI [2] was 97. For the same binder, the IC50 [3] was greater than 50 µg/mL, the IC80 [3] was greater than 50 µg/mL and the MPI [3] was 12. For the same binder, the IC50 [4] was 0.592 µg/mL, the IC80 [4] was 2.02 µg/mL and the MPI [4] was 100. For the same binder, the IC50 [5] was 11.2 µg/mL, the IC80 [5] was greater than 50 µg/mL and the MPI [5] was 66. It also gave an IC50 [6] greater than 50 µg/mL, an IC80 [6] greater than 50 µg/mL and an MPI [6] of 15. It also gave an IC50 [7] greater than 50 µg/mL, an IC80 [7] greater than 50 µg/mL and an MPI [7] of 0. It also gave an IC50 [8] of 1.54 µg/mL, an IC80 [8] greater than 50 µg/mL and an MPI [8] of 76. It also gave an IC50 [9] of 0.792 µg/mL, an IC80 [9] of 12.1 µg/mL and an MPI [9] of 84. The IC50 [10] was 0.73 µg/mL, the IC80 [10] was 7.1 µg/mL and the MPI [10] was 91. It also gave an IC50 [11] greater than 50 µg/mL, an IC80 [11] greater than 50 µg/mL and an MPI [11] of 25. For the same binder, the IC50 [12] was greater than 50 µg/mL, the IC80 [12] was greater than 50 µg/mL and the MPI [12] was 2. For the same binder, the IC50 [13] was greater than 50 µg/mL, the IC80 [13] was greater than 50 µg/mL and the MPI [13] was 0. The IC50 [14] was greater than 50 µg/mL, the IC80 [14] was greater than 50 µg/mL and the MPI [14] was 21. It also gave an IC50 [15] greater than 50 µg/mL, an IC80 [15] greater than 50 µg/mL and an MPI [15] of 0. It also gave an IC50 [16] greater than 50 µg/mL, an IC80 [16] greater than 50 µg/mL and an MPI [16] of 32. For the same binder, the IC50 [17] was greater than 50 µg/mL, the IC80 [17] was greater than 50 µg/mL and the MPI [17] was 4. The IC50 [18] was 0.043 µg/mL, the IC80 [18] was 0.259 µg/mL and the MPI [18] was 100. It also gave an IC50 [19] greater than 50 µg/mL, an IC80 [19] greater than 50 µg/mL and an MPI [19] of 32. It also gave an IC50 [20] greater than 50 µg/mL, an IC80 [20] greater than 50 µg/mL and an MPI [20] of 13. It also gave an IC50 [21] of 46.3 µg/mL, an IC80 [21] greater than 50 µg/mL and an MPI [21] of 53. For the same binder, the IC50 [22] was greater than 50 µg/mL, the IC80 [22] was greater than 50 µg/mL and the MPI [22] was 1. The IC50 [23] was greater than 50 µg/mL, the IC80 [23] was greater than 50 µg/mL and the MPI [23] was 9. It also gave an IC50 [24] of 2.99 µg/mL, an IC80 [24] greater than 50 µg/mL and an MPI [24] of 69. The IC50 [25] was greater than 50 µg/mL, the IC80 [25] was greater than 50 µg/mL and the MPI [25] was 19. The IC50 [26] was 0.873 µg/mL, the IC80 [26] was 8.19 µg/mL and the MPI [26] was 92. It also gave an IC50 [27] of 0.12 µg/mL, an IC80 [27] of 0.544 µg/mL and an MPI [27] of 100. It also gave an IC50 [28] greater than 50 µg/mL, an IC80 [28] greater than 50 µg/mL and an MPI [28] of 10. The IC50 [29] was greater than 50 µg/mL, the IC80 [29] was greater than 50 µg/mL and the MPI [29] was 6. It also gave an IC50 [30] of 0.079 µg/mL, an IC80 [30] of 0.359 µg/mL and an MPI [30] of 100. The IC50 [31] was 2.33 µg/mL, the IC80 [31] was 9.76 µg/mL and the MPI [31] was 93. It also gave an IC50 [32] of 1.83 µg/mL, an IC80 [32] of 18.5 µg/mL and an MPI [32] of 89. It also gave an IC50 [33] greater than 50 µg/mL, an IC80 [33] greater than 50 µg/mL and an MPI [33] of 9. The IC50 [34] was greater than 50 µg/mL, the IC80 [34] was greater than 50 µg/mL and the MPI [34] was 42. The IC50 [35] was greater than 50 µg/mL, the IC80 [35] was greater than 50 µg/mL and the MPI [35] was 23.

B2: N49P23 (antibody, V domains shown)
VH: QVRLVQSGAGARKTGASMKLSCSTSGYTFTTHHGHFINWVRQARGQGLEWMGWMNPMTGQMNIEGKFQGRVTLTRDIYSDTAYMEMTRLTTGDTGTYYCARGDFGQNYPFHYWGQGSLVIVSS
VL: LSALTQPASVSGSPGQSVTISCSGTNRYLVSWYQQHPDKAPKLIIYDDNKRPSGISDRFSASRPDDTASLTISGLQTGDEATYWCASYERFGGGTRLTVLS
In the case of B2, the IC50 [1] is reported as greater than 50 µg/mL, the IC80 [1] is reported as greater than 50 µg/mL and the MPI [1] is reported as 0. It also gave an IC50 [2] of 0.151 µg/mL, an IC80 [2] of 0.57 µg/mL and an MPI [2] of 100. It also gave an IC50 [3] greater than 50 µg/mL, an IC80 [3] greater than 50 µg/mL and an MPI [3] of 29. The IC50 [4] was 0.557 µg/mL, the IC80 [4] was 2.51 µg/mL and the MPI [4] was 100. The IC50 [5] was 0.099 µg/mL, the IC80 [5] was 0.464 µg/mL and the MPI [5] was 100. For the same binder, the IC50 [6] was 0.362 µg/mL, the IC80 [6] was 7.79 µg/mL and the MPI [6] was 91. For the same binder, the IC50 [7] was 0.083 µg/mL, the IC80 [7] was 0.44 µg/mL and the MPI [7] was 99. The IC50 [8] was 0.009 µg/mL, the IC80 [8] was 0.031 µg/mL and the MPI [8] was 100. For the same binder, the IC50 [9] was 0.008 µg/mL, the IC80 [9] was 0.05 µg/mL and the MPI [9] was 100. The IC50 [10] was 0.036 µg/mL, the IC80 [10] was 0.241 µg/mL and the MPI [10] was 98. It also gave an IC50 [11] of 0.061 µg/mL, an IC80 [11] of 0.614 µg/mL and an MPI [11] of 100. For the same binder, the IC50 [12] was greater than 50 µg/mL, the IC80 [12] was greater than 50 µg/mL and the MPI [12] was 14. It also gave an IC50 [13] greater than 50 µg/mL, an IC80 [13] greater than 50 µg/mL and an MPI [13] of 35. For the same binder, the IC50 [14] was 0.172 µg/mL, the IC80 [14] was 0.797 µg/mL and the MPI [14] was 100. For the same binder, the IC50 [15] was greater than 50 µg/mL, the IC80 [15] was greater than 50 µg/mL and the MPI [15] was 0. The IC50 [16] was 1.98 µg/mL, the IC80 [16] was 10.7 µg/mL and the MPI [16] was 97. The IC50 [17] was greater than 50 µg/mL, the IC80 [17] was greater than 50 µg/mL and the MPI [17] was 0. The IC50 [18] was 0.005 µg/mL, the IC80 [18] was 0.025 µg/mL and the MPI [18] was 100. For the same binder, the IC50 [19] was 0.021 µg/mL, the IC80 [19] was 0.122 µg/mL and the MPI [19] was 100. It also gave an IC50 [20] of 0.057 µg/mL, an IC80 [20] of 0.76 µg/mL and an MPI [20] of 95. It also gave an IC50 [21] of 0.221 µg/mL, an IC80 [21] of 0.809 µg/mL and an MPI [21] of 100. For the same binder, the IC50 [22] was 0.039 µg/mL, the IC80 [22] was 0.18 µg/mL and the MPI [22] was 100. For the same binder, the IC50 [23] was 0.114 µg/mL, the IC80 [23] was 0.899 µg/mL and the MPI [23] was 96. For the same binder, the IC50 [24] was 0.075 µg/mL, the IC80 [24] was 0.483 µg/mL and the MPI [24] was 100. The IC50 [25] was 0.18 µg/mL, the IC80 [25] was 0.849 µg/mL and the MPI [25] was 99. For the same binder, the IC50 [26] was greater than 50 µg/mL, the IC80 [26] was greater than 50 µg/mL and the MPI [26] was 40. For the same binder, the IC50 [27] was 0.069 µg/mL, the IC80 [27] was 0.245 µg/mL and the MPI [27] was 100. For the same binder, the IC50 [28] was greater than 50 µg/mL, the IC80 [28] was greater than 50 µg/mL and the MPI [28] was 11. The IC50 [29] was greater than 50 µg/mL, the IC80 [29] was greater than 50 µg/mL and the MPI [29] was 2. The IC50 [30] was 0.007 µg/mL, the IC80 [30] was 0.022 µg/mL and the MPI [30] was 100. For the same binder, the IC50 [31] was 0.215 µg/mL, the IC80 [31] was 1 µg/mL and the MPI [31] was 100. It also gave an IC50 [32] of 0.012 µg/mL, an IC80 [32] of 0.096 µg/mL and an MPI [32] of 100. It also gave an IC50 [33] greater than 50 µg/mL, an IC80 [33] greater than 50 µg/mL and an MPI [33] of 31. It also gave an IC50 [34] of 0.043 µg/mL, an IC80 [34] of 0.223 µg/mL and an MPI [34] of 100. For the same binder, the IC50 [35] was 0.297 µg/mL, the IC80 [35] was 1.38 µg/mL and the MPI [35] was 100.
